Literature values, collected in publication PMC4961565.

Target: Asp309 (UniProt position 309, LIAAPDTMSVS)
Test: other

Substance: Cytochrome P450 19A1 (aromatase) (Homo sapiens)
- pKa: 8.2
